Measured values taken from patent CN115819563A.
Values joined by “and” are separate entries in the source; they are usually repeats but may differ in a detail not shown here. Equal entries are not always repeated.

Target: 猪伪狂犬病毒gE蛋白 (on inactivated pseudorabies virus) (pseudorabies virus (PRV))

B1: 抗猪伪狂犬病毒gE蛋白单克隆抗体 (antibody, V domains shown)
VH: EVQLQESAHELVKPGASVKIPCKASGYTFTDYNMHWVKQSLRKSLEWIGDIHPNNGGTIYNQKCMGKATLTVDKSSSTADMELRSLTSDDTAVYSCAREGIHCYGSCYVRYDLDYCRQGTTLTVSS
VL: DTVLTQSSASLAVSLCQRATISCKASQSVDHDGDSYMNWSQQRPSQSSTLLIYAASNLESGIPARFSCSGSRTDFTLNIHPVEEEDAATYYCQQT
  OD450nm: 2.59 OD450nm and 2.57 OD450nm and 2.62 OD450nm
